Reference: publication PMC5454011

Assays:
[1] = molecular target: MrsD-protein A fusion protein (shared helix method) (not stated | Staphylococcus aureus); assay: crystal structure; vapour diffusion; crystals of a single fusion protein
[2] = molecular target: YgjG-protein A fusion protein (shared helix method) (E. coli | Staphylococcus aureus); assay: crystal structure; vapour diffusion; complex of YgjG-protein A with ZpA963-calmodulin; 5 mM CaCl2 in all buffers
[3] = molecular target: YgjG-protein A fusion protein (shared helix method) (E. coli | Staphylococcus aureus); assay: crystal structure; vapour diffusion; complex of YgjG-protein A with ZpA963-PKA_C

Row | Substance | stoichiometry N [1] | stoichiometry N [2] | stoichiometry N [3]
1 | MrsD-protein A fusion protein (shared helix method) | 12 |  | 
2 | YgjG-protein A fusion protein (shared helix method) |  | 4 | 4
